Experimental data: patent CN114106174A (SUZHOU SCENE MEDICAL SCIENCE AND TECH LIMITED COMPANY, dated 2022)

T1: OX40 on OX40-overexpressing cells (OX40过表达细胞表面OX40) (UniProt P43489 29-277, limits assumed)
T1 construct: whole, on cells; The cell line and the construct of the overexpressing cells are not described; also called CD134; TNFRSF4
T1 sequence (looked up): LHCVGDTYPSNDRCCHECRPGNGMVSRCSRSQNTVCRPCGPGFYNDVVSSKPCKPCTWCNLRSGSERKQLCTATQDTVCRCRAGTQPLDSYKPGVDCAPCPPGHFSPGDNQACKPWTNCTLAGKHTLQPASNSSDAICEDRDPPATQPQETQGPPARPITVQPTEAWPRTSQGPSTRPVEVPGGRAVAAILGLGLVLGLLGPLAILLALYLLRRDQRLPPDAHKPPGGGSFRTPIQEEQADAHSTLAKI

B1: 55H6-6 (antibody, V domains shown)
VH: QVQLVQSGAEVKKPGASVKVSCKASGYTFTSYGISWVRQAPGQGLEWMGWISAYNGHTNYAQKLQGRVTMTTDTSTNTAYMELWSLRSDDTAVYYCTSDYGDYWGQGTLVTVSS
VL: DVVVTQSPLSLPVTLGQPASISCRSSQSLVYSDGNTNLYWFQQRPGQSPRRLIYQVSNRDSGVPDRFSGSGSGTDFTLKISRVEAEDVGVYYCMQGTHWPPALTFGGGTEVEIKR
B2: 24E10-4 (antibody, V domains shown)
VH: QVQMQESGPGLVKPSGTLSLTCAVSGGSISSSKWWSWVRQPPGKGLEWIGEIYHSGSTNYNPSLKSRVTISIDKSKNQFSLRLTSVTAADTAVYYCARGDVLLWFGGQGTLVTVSS
VL: EIVLTQSPGTLSLSPGERATLSCWASQSVSSTYLAWYQQKPGQAPRLLIYGASIRATGIPDRFSGSGSGTDFTLTISSLEPEDFAVYYCQQYGSSPITFGQGTRLEIKR
B3: 30B1-3 (antibody, V domains shown)
VH: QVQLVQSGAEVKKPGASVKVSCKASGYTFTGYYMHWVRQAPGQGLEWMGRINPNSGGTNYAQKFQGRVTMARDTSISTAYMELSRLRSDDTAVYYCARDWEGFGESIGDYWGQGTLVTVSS
VL: EIVLTQSPGTLSLSPGERATFSCRASQSVSGSYLAWYQQKPGQAPRLLIHGASSRATGIPDRFSGSGSGTDFTLTISRLEPEDFAVYYCLQYGSSPLTFGGGTKVEIKR
B4: 24F10-1 (antibody, V domains shown)
VH: QVQLQESGPGLVKPSGNLSLTCVVSGASIINNNWWTWVRQSPGKGLEWIGEIFHSGTTNYNPSLKNRVTISVDKAKNQFSLNLKSVTAADTAVYYCVAYVSGTYYNFDYWGQGTLVTVSS
VL: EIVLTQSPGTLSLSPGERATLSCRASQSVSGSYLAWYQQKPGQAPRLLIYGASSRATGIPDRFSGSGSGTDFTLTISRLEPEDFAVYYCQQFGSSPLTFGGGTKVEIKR
B5: 15A7-6 (antibody, V domains shown)
VH: QVQLQESGPGLVKPSGTLSLTCAVSGGSINSSSWWSWVRQPPGKGLEWIGEIYHSGDTNYNPSLKSRVAISVDKSKNQFSLKLSSVTAADTAVYYCARDQADYFGSGNYVYWGQGTLVTVSS
VL: EIVLMQYPGTLSLSSGERRVLSCRPSQSVSSSYLAWYQQKPGQAPRLLIYGASSRASGIPDRFSGSGSGTDFTLTISRLEPEDFAVYYCQQYGSLPITFGQGTRVEIKR

Biological target: T1, OX40 on OX40-overexpressing cells …
Experiment: flow cytometry, hybridoma supernatant on OX40-overexpressing cells, goat anti-mouse IgG-PE

Row | Binder | Y586通道PE荧光值
1 | B1 | 479000
2 | B2 | 344000
3 | B3 | 208000
4 | B4 | 274000
5 | B5 | 181000
